Experimental data reported in the supplement of paper PMC10724198.
± gives the standard deviation of the averaged measurements.

Test system: Saccharomyces cerevisiae
Experiment: protein stability index of tFT-peptide fusion (C-terminal peptide) (PSI (0-1 scale)); higher = more stable (slower turnover)
Conditions: temperature: 30 C
Protocol: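 MPS profiling in S. cerevisiae of the yeast C-terminome library: the last 12 aa of each annotated ORF are fused to the C-terminus of a sfGFP-mCherry timer, after a GGGS linker. Cells are FACS-sorted into 8 mCherry/sfGFP bins and deep-sequenced. PSI runs from 0 (unstable) to 1 (stable); wild type and das1Δ backgrounds, two technical replicates each.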

[1] = genetic background: das1 deletion

| Sequence | protein stability index [1] | protein stability index (genetic background: wild type) |
| --- | --- | --- |
| GNEPMEKFIQSL [YMR090W C-terminal 12 aa] | 0.694 ± 0.005 | 0.669 ± 0.0072 |
| KKQLLPSKTVDN [HED1 C-terminal 12 aa] | 0.688 ± 0.013 | 0.66 ± 0.04 |
| KYGIYLKEKTVA [LYS9 C-terminal 12 aa] | 0.663 ± 0.013 | 0.4895 ± 0.0018 |
| GAAVGGALAFLI [DDR2 C-terminal 12 aa] | 0.702 ± 0.02 | 0.677 ± 0.0076 |
| EHRMLKLILNSG [NTO1 C-terminal 12 aa] | 0.694 ± 0.017 | 0.644 ± 0.013 |
| VAEKIPENETTH [ISW1 C-terminal 12 aa] | 0.6915 ± 0.0016 | 0.679 ± 0.031 |
| PFNRNVSDKLKK [VAC14 C-terminal 12 aa] | 0.733 ± 0.038 | 0.713 ± 0.063 |
| AVIGVYGEGQFI [ATG33 C-terminal 12 aa] | 0.6986 ± 0.0067 | 0.693 ± 0.049 |
| TYSTLINIDVSL [NIC96 C-terminal 12 aa] | 0.702 ± 0.059 | 0.688 ± 0.046 |
| RLLSLAQPPVNF [YER165C-A C-terminal 12 aa] | 0.7584 ± 0.0037 | 0.703 ± 0.04 |
| FLKNFTNDTFDN [BCH1 C-terminal 12 aa] | 0.7055 ± 0.0035 | 0.7462 ± 0.0044 |
| EAQLSCNYEPLP [COS10 C-terminal 12 aa] | 0.707 ± 0.021 | 0.673 ± 0.0098 |
| RLGDVLRVCCPS [YFL065C C-terminal 12 aa] | 0.627 ± 0.0072 | 0.668 ± 0.0092 |
| SHMILYQQQECY [YER181C C-terminal 12 aa] | 0.451 ± 0.0097 | 0.46 ± 0.011 |
| KVESSDCSFEFA [VID24 C-terminal 12 aa] | 0.6988 ± 0.0069 | 0.696 ± 0.011 |
| LVSYFLKVQMNL [YNL095C C-terminal 12 aa] | 0.514 ± 0.02 | 0.491 ± 0.011 |
| RVVDLIEYVAKA [TDH1 C-terminal 12 aa] | 0.6636 ± 0.0045 | 0.703 ± 0.055 |
| LEWLSNSLKNST [ARF1 C-terminal 12 aa] | 0.735 ± 0.034 | 0.6802 ± 0.0039 |
| RFQDGTSVVSIM [SMC2 C-terminal 12 aa] | 0.695 ± 0.011 | 0.6814 ± 0.006 |
| EEQRNHLKDLYG [SLU7 C-terminal 12 aa] | 0.6968 ± 0.0037 | 0.702 ± 0.011 |
| EDSHYGNAKKVT [FPS1 C-terminal 12 aa] | 0.708 ± 0.0097 | 0.688 ± 0.011 |

| Sequence | protein stability index [1] | protein stability index (genetic background: wild type) |
| --- | --- | --- |
| QLLNLLVKISQL [RFC2 C-terminal 12 aa] | 0.677 ± 0.032 | 0.18 ± 0.0089 |
| LTINDLDVTFVI [YCR041W C-terminal 12 aa] | 0.721 ± 0.022 | 0.71 ± 0.0024 |
| LQPLIDLDIDNK [ICS2 C-terminal 12 aa] | 0.699 ± 0.026 | 0.702 ± 0.041 |
| GNSGGSNNSSWW [DED1 C-terminal 12 aa] | 0.71484 ± 0.00065 | 0.697 ± 0.02 |
| IGTLIPEPGVNV [DAP1 C-terminal 12 aa] | 0.6825 ± 0.0027 | 0.676 ± 0.032 |
| RLKLDYSLIFPQ [MEI5 C-terminal 12 aa] | 0.7 ± 0.01 | 0.72 ± 0.038 |
| LSLRTKNTENKE [YGL159W C-terminal 12 aa] | 0.716 ± 0.038 | 0.688 ± 0.033 |
| SQLLNLLQDLDT [ENV7 C-terminal 12 aa] | 0.696 ± 0.02 | 0.722 ± 0.011 |
| ALSADGIYTIAN [PAU5 C-terminal 12 aa] | 0.71 ± 0.0096 | 0.6966 ± 0.0031 |
| GEDTGPTVEEVD [SSA3 C-terminal 12 aa] | 0.682 ± 0.013 | 0.684 ± 0.015 |
| VLVCFQTFILLQ [YDL032W C-terminal 12 aa] | 0.152 ± 0.012 | 0.162 ± 0.0082 |
| EFVVQSLRSRNQ [YFR018C C-terminal 12 aa] | 0.7231 ± 0.0049 | 0.703 ± 0.035 |
| AIYPVLSEFRKM [SPT15 C-terminal 12 aa] | 0.701 ± 0.0082 | 0.706 ± 0.074 |
| VFKSKCKKIYIG [DGR1 C-terminal 12 aa] | 0.7125 ± 0.0067 | 0.457 ± 0.04 |
| LITTRTVHRSLD [YEL076C-A C-terminal 12 aa] | 0.6963 ± 0.0014 | 0.6572 ± 0.0041 |
| MDSRVAHGNILI [SRB5 C-terminal 12 aa] | 0.70004 ± 0.00046 | 0.688 ± 0.092 |
| KTGKEVRSGKQL [ATX1 C-terminal 12 aa] | 0.689 ± 0.0069 | 0.679 ± 0.022 |
| DLIDDKTNRGRR [PRP2 C-terminal 12 aa] | 0.696 ± 0.029 | 0.697 ± 0.023 |
| VNFDIEEEQEGQ [JJJ3 C-terminal 12 aa] | 0.685 ± 0.011 | 0.791 ± 0.071 |
| EKKRVLNAVCGL [YLR412C-A C-terminal 12 aa] | 0.69 ± 0.016 | 0.658 ± 0.021 |
